In experiment [1] the target is WT BAM complex (BamABCDE-His6) (Escherichia coli K-12). As to the kind of experiment: cryo-EM structure; purified BAM (WT or BAM-LL) mixed with Fab1 in DDM micelles, pH 8.0, 150 mM NaCl; WT BAM with a 2-fold molar excess of Fab1, complex isolated on Superdex 200; BAM-LL and Fab1 mixed 1:1. Conditions: both partners purified.
Experiment [2] addresses BamA, as the subunit of WT BAM (Escherichia coli K-12). The experiment is described as above. The conditions noted are these: both partners purified.

B1: Fab1, anti-BamA monoclonal antibody Fab fragment (Fab, V domains shown)
VH: EVQLVESGGGLVQPGRSLKLSCVASRFTFSNYGMNWIRQTPGKGLEWVAYIGSTSSHIYYAETVKGRFTISRDNAKNTLYLQMTGLRSEDTALYYCVGHVRKLGAFFDYWGQGAMVTVSS
VL: DIQMTQSPASLSASLGETVTIECRASEDIHSRLAWYQQKPGKSPQLLIYNANSLHTGVPSRFSGSGSGTQFSLKINSLQSEDVASYFCLQYYNYPPYTFGAGAKLELR
notes: heavy chain of Fab1 in the crystal structure deposited here (PDB 7BM5); light chain of Fab1 in the crystal structure deposited here (PDB 7BM5); also called bactericidal Fab fragment; Fab of MAB1; source: E. coli, purified (Protein G, SP Sepharose, Superdex 75)
Regarding B1, the binding result in experiment [1] and in experiment [2] was “binds” each time.

For the origin of these results see article PMC8263589, “The role of membrane destabilisation and protein dynamics in BAM catalysed OMP folding” (Nature Communications, 2021).
